This note sets out measurements from article PMC10120734.

As a reminder, the stoichiometry N is a count of units in the complex or per binding partner.

In the test the target is free UbcH8 (Ube2L6), GST tag removed (human). The experiment in a line: SAXS.

In turn, “free UbcH8 (Ube2L6), GST tag removed (enzyme)” displayed a stoichiometry N of 2.
